The target of test [1] is ErbB2 (UniProt P04626). As to the kind of experiment: Phospho(Tyr1248)/Total ErbB2 binding assay, MSD whole cell lysate kit, SK-BR-3 cells treated 2 h.
The target in test [2] is ErbB2 (UniProt P04626). The experiment in a line: Phospho(Tyr1248)/Total ErbB2 binding assay, MSD whole cell lysate kit, BT-474 cells treated 2 h.
The subject of test [3] is A375 human melanoma cells. The experiment in a line: A375 melanoma xenograft model: tumor volume change and survival. The conditions noted are these: mice with tumors larger than 2000 mm^3 euthanized.
Description: A375 human melanoma cells were subcutaneously injected into mice to generate xenograft models. The tumors were allowed to grow to about 600 mm^3 before treatment according to the following protocols. Nine mice were treated for each protocol, except as noted.
Cohort 1—Vehicle control (“Vehicle”). […] The vehicle control was administered to each mouse at a dosage of 120 μL/mouse on the second day of the experiment.
Cohort 4—BEV12 and ABX30 on same day (“BEV12+ABX30—Same Day”).
P-values were determined using an un-paired t-test.
Survival time of the treated mice was also recoded. Mice with tumors larger than 2000 mm^3 were euthanized.

Consider “Thiolated conjugate of trastuzumab and nab-paclitaxel particles (Example 34, paclitaxel:trastuzumab 31:1) (from UniProt P02768 25-609)”, for which, in the test with ErbB2 [1], the IC50 (commonly the midpoint of a concentration-inhibition curve) is 0.311 nM. “SM(PEG)6 conjugate of trastuzumab and nab-paclitaxel particles with free mAb (Example 35, paclitaxel:trastuzumab 10:1) (from UniProt P02768 25-609)”: the IC50 with ErbB2 [2] was determined as 0.441 nM; with ErbB2 [1] it was 0.301 nM.

“Nanoparticles with embedded trastuzumab, paclitaxel and albumin, with free mAb (Example 20, paclitaxel:trastuzumab 10:1) (from UniProt P02768 25-609)”: the IC50 was 0.524 nM with ErbB2 [2] and 0.409 nM with ErbB2 [1]. With “Nanoparticles with embedded trastuzumab, paclitaxel and albumin (Example 12, Batch 4, paclitaxel:trastuzumab 4.5:1) (from UniProt P02768 25-609)”, the IC50 with ErbB2 [2] was determined as 0.429 nM; in the test with ErbB2 [1] it was 0.289 nM.

“SM(PEG)6 conjugate of trastuzumab and isolated nab-paclitaxel particles (Example 23, paclitaxel:trastuzumab 92.5:1) (from UniProt P02768 25-609)”: the IC50 in the test with ErbB2 [2] came out at 0.291 nM; with ErbB2 [1], 0.557 nM.

As for “Click conjugate of trastuzumab and nab-paclitaxel particles (Example 26, paclitaxel:trastuzumab 51:1) (from UniProt P02768 25-609)”, the half-maximal inhibitory concentration (IC50) with ErbB2 [2] is 0.702 nM; with ErbB2 [1], 0.59 nM. Turning to “Nanoparticles with embedded trastuzumab, paclitaxel and albumin (Example 12, Batch 3, paclitaxel:trastuzumab 6.7:1) (from UniProt P02768 25-609)”, the IC50 turned out to be 0.456 nM with ErbB2 [2] and 0.37 nM with ErbB2 [1].

For “Nanoparticles with embedded trastuzumab, paclitaxel and albumin (Example 12, Batch 2, paclitaxel:trastuzumab 5.9:1) (from UniProt P02768 25-609)”, the IC50 turned out to be 0.349 nM with ErbB2 [2] and 0.361 nM with ErbB2 [1]. As for “bevacizumab: antiangiogenic antibody that targets vascular endothelial growth factor A (VEGF-A)”, the “Median Survival” value in test [3] came to 38 days. For “Nanoparticles with embedded trastuzumab, paclitaxel and albumin (Example 12, Batch 1, paclitaxel:trastuzumab 5.6:1) (from UniProt P02768 25-609)”, the values for the IC50 with ErbB2 [2] and in the test with ErbB2 [1] were 0.35 nM and 0.357 nM, respectively. For “Thiolated conjugate of trastuzumab and nab-paclitaxel particles (Example 33, paclitaxel:trastuzumab 12:1) (from UniProt P02768 25-609)”, the IC50 with ErbB2 [2] was found to be 0.216 nM; with ErbB2 [1], 0.977 nM.

The record behind these values is patent publication US20190247357A1, “NANOPARTICLE FORMULATIONS AND METHODS OF MAKING AND USING THEREOF” (Abraxis BioScience, LLC, priority 2016, published 2019).
